Target: T1, human CD39 naturally expressed on MOLP-8 cells (human, UniProt P49961 1-510)
T1 construct: whole, on cells; also called CD39 antigen; CD39 protein
T1 sequence (looked up): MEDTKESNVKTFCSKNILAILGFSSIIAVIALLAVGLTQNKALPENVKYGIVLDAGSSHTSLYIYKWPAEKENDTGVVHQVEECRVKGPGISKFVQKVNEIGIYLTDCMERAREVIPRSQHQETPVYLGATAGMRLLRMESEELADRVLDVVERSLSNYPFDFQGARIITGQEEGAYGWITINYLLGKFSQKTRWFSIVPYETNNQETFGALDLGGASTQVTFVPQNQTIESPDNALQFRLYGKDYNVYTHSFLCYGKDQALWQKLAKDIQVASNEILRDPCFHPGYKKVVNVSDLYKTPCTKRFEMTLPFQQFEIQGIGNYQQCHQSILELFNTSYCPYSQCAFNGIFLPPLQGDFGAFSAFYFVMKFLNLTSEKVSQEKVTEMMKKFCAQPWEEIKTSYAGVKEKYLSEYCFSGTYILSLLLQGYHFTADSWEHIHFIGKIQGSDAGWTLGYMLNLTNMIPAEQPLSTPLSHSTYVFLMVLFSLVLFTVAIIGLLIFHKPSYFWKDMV
Assay: flow cytometry on MOLP-8 cells, FITC goat anti-human H+L secondary antibody

B1: humanized monoclonal antibody F314 (antibody, human IgG4 S228P, kappa, V domains shown)
VH: QVQLVQSGAEVKKPGASVKVSCKASGYTFTNYWMYWVRQRPGRGLEWIGRIAPSSGATKYNEKFKNRATLTVDTSISTAYMELSRLRSDDTAVYYCARSGIYYDYDWFFDVWGQGTTVTVSS
VL: DIQMTQSPSSLSASVGDRVTITCKASQDINKYIGWYQQKPGKAPKLLIHYTSTLQPGVPSRFSGSGSGRDYTFTISSLQPEDIATYYCLQYHALLFTFGQGTKLEIKR
notes: Expressed in CHO-S cells; also called F314 monoclonal antibody; naked antibody
binding result: binds
